In article PMC3335734:

Legend:
FliM-YFP (E. coli) = biological target: T1, FliM-YFP (E. coli) (UniProt P06974)
T1 sequence: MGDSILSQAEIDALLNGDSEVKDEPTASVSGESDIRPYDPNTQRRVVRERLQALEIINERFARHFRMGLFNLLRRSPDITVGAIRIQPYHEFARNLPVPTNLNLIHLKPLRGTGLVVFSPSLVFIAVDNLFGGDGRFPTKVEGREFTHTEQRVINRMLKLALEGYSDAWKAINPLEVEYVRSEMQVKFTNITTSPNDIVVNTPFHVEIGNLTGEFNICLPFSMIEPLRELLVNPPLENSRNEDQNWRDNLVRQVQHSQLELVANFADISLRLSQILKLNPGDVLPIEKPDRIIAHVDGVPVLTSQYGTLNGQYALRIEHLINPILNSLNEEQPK

wild-type FliM (E. coli) = biological target: T2, wild-type FliM (E. coli) (UniProt P06974)
T2 sequence: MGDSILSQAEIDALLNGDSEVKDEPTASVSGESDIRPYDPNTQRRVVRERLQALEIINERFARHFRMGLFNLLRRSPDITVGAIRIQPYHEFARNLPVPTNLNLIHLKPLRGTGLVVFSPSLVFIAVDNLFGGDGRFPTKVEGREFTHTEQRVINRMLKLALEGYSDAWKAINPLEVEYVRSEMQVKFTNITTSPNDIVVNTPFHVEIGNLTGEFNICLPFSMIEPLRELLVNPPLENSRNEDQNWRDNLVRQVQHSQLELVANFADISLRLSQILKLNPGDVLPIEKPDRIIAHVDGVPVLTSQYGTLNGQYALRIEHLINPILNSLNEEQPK

B1: CheY-P (natural protein)
chain: MADKELKFLVVDDFSTMRRIVRNLLKELGFNNVEEAEDGVDALNKLQAGGYGFVISDWNMPNMDGLELLKTIRADGAMSALPVLMVTAEAKKENIIAAAQAGASGYVVKPFTAATLEEKLNKIFEKLGM
modifications: phosphorylated (CheY-P); residue not given
CW bias of motors, bead assay, cheR cheB cells expressing FliM-YFP (FliM-YFP (E. coli)): 61% | speed of motors, bead assay, cheR cheB cells expressing FliM-YFP (FliM-YFP (E. coli)): 50.4 Hz | switching rate of motors, bead assay, cheR cheB cells expressing FliM-YFP (FliM-YFP (E. coli)): 3.8 s⁻¹ | CW bias of motors, bead assay, cheR cheB cells expressing wild-type FliM (wild-type FliM (E. coli)): 58% | speed of motors, bead assay, cheR cheB cells expressing wild-type FliM (wild-type FliM (E. coli)): 51.5 Hz | switching rate of motors, bead assay, cheR cheB cells expressing wild-type FliM (wild-type FliM (E. coli)): 3.4 s⁻¹
